Patent publication US20240116985A1, “STAPLED PEPTIDES AND METHODS THEREOF” (priority 2020, published 2024)
Starred links: 1 amine or outer side, 2 acyl side, 3 side chain; linkers in the order of their positions; H or OH if unused. Positions of bridges follow the written chain, without caps; N, C: chain ends. Non-standard residues stand in square brackets, D forms with d. Primed or numbered codes have the meaning given here. *: point of attachment. PyrS2″ = (S)-3-amino-1-((pent-4-en-1-yloxy)carbonyl)pyrrolidine-3-carboxylic acid (stapling residue), C=CCCCOC(=O)N1CC[C@@](N[*:1])(C(=O)[*:2])C1; B5(4) = 2,2-bis(4-pentenyl)glycine = 2-amino-2-(pent-4-en-1-yl)hept-6-enoic acid (stitching residue), C=CCCCC(CCCC=C)(N[*:1])C(=O)[*:2]; B5(5) = 2,2-bis(4-pentenyl)glycine, 2-amino-2-(pent-4-en-1-yl)hept-6-enoic acid (stitching residue), C=CCCCC(CCCC=C)(N[*:1])C(=O)[*:2]; PyrS2 = (S)-3-amino-1-((pent-4-en-1-yloxy)carbonyl)pyrrolidine-3-carboxylic acid, C=CCCCOC(=O)N1CC[C@@](N[*:1])(C(=O)[*:2])C1; PyrS1 = (S)-3-amino-1-((but-3-en-1-yloxy)carbonyl)pyrrolidine-3-carboxylic acid, C=CCCOC(=O)N1CC[C@@](N[*:1])(C(=O)[*:2])C1; B5(25) = 2-amino-2-(pent-4-en-1-yl)hept-6-enoic acid (stitching residue), C=CCCCC(CCCC=C)(N[*:1])C(=O)[*:2]; MorphAsn = (S)-2-amino-4-morpholino-4-oxobutanoic acid, O=C(C[C@H](N[*:1])C(=O)[*:2])N1CCOCC1; B5(3) = 2,2-bis(4-pentenyl)glycine (stitching residue), C=CCCCC(CCCC=C)(N[*:1])C(=O)[*:2]; B6 = 2-amino-2-(hex-5-en-1-yl)oct-7-enoic acid, C=CCCCCC(CCCCC=C)(N[*:1])C(=O)[*:2]; R6 = (R)-2-amino-2-methyloct-7-enoic acid, C=CCCCC[C@@](C)(N[*:1])C(=O)[*:2]; R4 = (R)-2-amino-2-methylhex-5-enoic acid, C=CCC[C@@](C)(N[*:1])C(=O)[*:2]; Phe(3-CF3) = N[C@@H](Cc1cccc(C(F)(F)F)c1)C(=O)O; Phe(3-COOH) = N[C@@H](Cc1cccc(C(=O)O)c1)C(=O)O; Phe(2-CF3) = N[C@@H](Cc1ccccc1C(F)(F)F)C(=O)O; Phe(2-Cl) = N[C@@H](Cc1ccccc1Cl)C(=O)O; dαMeGly(allyl) = C=CC[C@@](C)(N)C(=O)O; Bta = N[C@@H](Cc1csc2ccccc12)C(=O)O; Lys(iPr) = CC(C)NCCCC[C@H](N)C(=O)O; αAllylPro = C=CC[C@@]1(C(=O)O)CCCN1; Morpholinoacetyl = O=C(CN1CCOCC1)*; tBuAla = CC(C)(C)C[C@H](N)C(=O)O; 3Thi = N[C@@H](Cc1ccsc1)C(=O)O; Cha = N[C@@H](CC1CCCCC1)C(=O)O; Leu(ol) = CC(C)C[C@H](N)CO; Me2Npr = not defined here; Alaol = C[C@@H](CO)N*; Ms = CS(=O)(=O)*

Experiments:
[1] = molecular target: full-length beta-Catenin (Uniprot ID P35222) (Homo sapiens (Human)) (UniProt P35222); test: fluorescence polarization competition; peptide titrated against 10 nM full-length beta-catenin + 10 nM 5FAM-TCF4(10-53)
[2] = molecular target: full-length beta-Catenin (Uniprot ID P35222) (Homo sapiens (Human)) (UniProt P35222); test: fluorescence polarization competition; full-length beta-catenin, competitor 5FAM-TCF4(10-53) probe
Target sequence in this assay (P35222 whole entry): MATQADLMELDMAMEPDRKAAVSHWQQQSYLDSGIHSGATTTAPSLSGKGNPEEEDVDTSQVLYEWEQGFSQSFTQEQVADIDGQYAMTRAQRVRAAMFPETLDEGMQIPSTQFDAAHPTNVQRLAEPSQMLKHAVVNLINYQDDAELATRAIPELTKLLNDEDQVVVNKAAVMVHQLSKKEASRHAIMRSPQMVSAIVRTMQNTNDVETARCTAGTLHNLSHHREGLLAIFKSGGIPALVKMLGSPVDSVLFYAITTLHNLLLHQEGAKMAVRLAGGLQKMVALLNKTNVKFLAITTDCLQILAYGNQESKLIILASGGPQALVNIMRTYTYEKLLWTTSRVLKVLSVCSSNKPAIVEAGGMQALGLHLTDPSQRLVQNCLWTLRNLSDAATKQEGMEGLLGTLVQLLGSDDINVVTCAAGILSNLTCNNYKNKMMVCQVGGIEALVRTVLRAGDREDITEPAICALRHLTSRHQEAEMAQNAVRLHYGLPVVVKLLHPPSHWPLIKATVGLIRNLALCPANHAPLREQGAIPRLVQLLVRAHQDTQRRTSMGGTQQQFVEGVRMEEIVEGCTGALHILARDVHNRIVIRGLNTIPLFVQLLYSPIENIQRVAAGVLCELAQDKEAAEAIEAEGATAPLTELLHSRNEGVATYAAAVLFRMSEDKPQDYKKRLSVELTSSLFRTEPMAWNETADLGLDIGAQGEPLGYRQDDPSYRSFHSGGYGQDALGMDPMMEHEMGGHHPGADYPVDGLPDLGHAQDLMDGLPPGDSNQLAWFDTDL

[3] = molecular target: full-length beta-Catenin (Uniprot ID P35222) (Homo sapiens (Human)) (UniProt P35222); test: fluorescence polarization competition; 10 nM full-length beta-catenin + 10 nM 5FAM-TCF4(10-53) probe
Target sequence in this assay (P35222 whole entry): as above

Binder	IC50 [1] [nM]	EC50 [2] [nM]	IC50 [3] [nM]
Ac-[αAllylPro]D[tBuAla][B5(4)]DDAAFN[PyrS2″][Phe(2-Cl)][Bta][Leu(ol)] (staple 1-4, 4-11) [I-1080]	6	6	
Ac-PD[tBuAla][dαMeGly(allyl)]DDAAFL[PyrS2][3Thi][Bta]Q-NH2 (staple 4-11; not fully specified; printed as Ac-Pro-Asp-Npg-R3-Asp-Asp-Ala-Ala-Phe-Leu-PyrS2-3Thi-BztA-Gln-NH2; also: staple -CH=CH- reduced to -CH2-CH2-) [I-1993]			728
Ac-[αAllylPro]D[tBuAla][B5(3)]DEAAFL[PyrS2″][Phe(2-Cl)][Bta]T-NH2 (staple 1-4, 4-11; also: staple stereoisomer: later eluting HPLC peak) [I-1071]	1260	1260	
Ac-[αAllylPro]D[tBuAla][B5(3)]DDAAFN[PyrS2″][Phe(2-Cl)][Bta]-Alaol (staple 1-4, 4-11) [I-1081]	5	5	
Ac-PD[tBuAla][dαMeGly(allyl)]DDAAFL[PyrS2][3Thi][Bta]Q-NH2 (staple 4-11) [I-1990]			585
Ac-PD[tBuAla][R4]DDAAFL[PyrS2][3Thi][Bta]Q-NH2 (staple 4-11) [I-1989]			186
Ac-[αAllylPro]DA[B5(4)]NTAAFN[PyrS2″][3Thi][Bta]Q-NH2 (staple 1-4, 4-11; not fully specified; printed as Ac-PL3-Asp-Ala-B5-Asn-Thr-Ala-Ala-Phe-Asn-PyrS2-3Thi-BztA-Gln-NH2) [I-2002]			612
Ac-PD[tBuAla][R6]DDAAFL[PyrS2][3Thi][Bta]Q-NH2 (staple 4-11) [I-1988]			312
Ac-[αAllylPro]D[Cha][B5(4)]DEAAFL[PyrS2″][Phe(2-Cl)][Bta]Q-NH2 (staple 1-4, 4-11; also: earlier-eluting HPLC peak staple isomer composition) [I-1077]	324	324	
Ac-PD[tBuAla][R4]DDAAFL[PyrS2][3Thi][Bta]Q-NH2 (staple 4-11; not fully specified; printed as Ac-Pro-Asp-Npg-R4-Asp-Asp-Ala-Ala-Phe-Leu-PyrS2-3Thi-BztA-Gln-NH2; also: staple -CH=CH- reduced to -CH2-CH2-) [I-1992]			536
Ac-[αAllylPro]D[tBuAla][B5(3)]DEAAFL[PyrS2″]F[Bta]Q-NH2 (staple 1-4, 4-11; also: staple stereoisomer: later eluting HPLC peak) [I-1074]	498	498	
Ac-[αAllylPro]D[tBuAla][B5(3)]DEAAFL[PyrS2″]F[Bta]Q-NH2 (staple 1-4, 4-11; not fully specified; printed as Ac-PL3-Asp-Npg-B5-Asp-Glu-Ala-Ala-Phe-Leu-PyrS2-Phe-BztA-Gln-NH2) [I-1073]	409	409	
Ac-[αAllylPro]D[Cha][B5(4)]DEAAFL[PyrS2″][Phe(2-Cl)][Bta]Q-NH2 (staple 1-4, 4-11; also: later-eluting HPLC peak staple isomer composition) [I-1078]	352	352	
Ac-[αAllylPro]D[tBuAla][B5(5)]DTAA[Phe(3-CF3)]T[PyrS2″]F[Bta]S-NH2 (staple 1-4, 4-11) [I-1268: Ac-PL3-Asp-Npg-B5-Asp-Thr-Ala-Ala-3F3MeF-Thr-PyrS2-Phe-BztA-Ser-NH2]	198		
Ac-PD[tBuAla][R6]DDAAFL[PyrS2][3Thi][Bta]Q-NH2 (staple 4-11; not fully specified; printed as Ac-Pro-Asp-Npg-R6-Asp-Asp-Ala-Ala-Phe-Leu-PyrS2-3Thi-BztA-Gln-NH2; also: staple -CH=CH- reduced to -CH2-CH2-) [I-1991]			397

Continued, values first:

IC50 [1] [nM]	EC50 [2] [nM]	IC50 [3] [nM]	Binder
209			Ac-[αAllylPro]D[tBuAla][B6]D[Phe(3-COOH)]QAFL[PyrS2][Phe(2-CF3)][Bta]A-NH2 (staple 1-4, 4-11; also: one of three HPLC isomer compositions) [I-2516]
27			Ac-[αAllylPro]D[tBuAla][B5(4)]DXQAFL[PyrS2][Phe(2-CF3)][Bta]A-NH2 (staple 1-4, 4-11; not fully specified (residue 6); printed as Ac-PL3-Asp-Npg-B5-Asp-[CH2CChCO2H]TriAzDap-Gln-Ala-Phe-Leu-PyrS2-2F3MeF-BztA-Ala-NH2) [I-2520]
263			Ac-[αAllylPro]N[Cha][B5(4)]DQK(Morpholinoacetyl)AFL[PyrS2]F[Bta][MorphAsn]-NH2 (staple 1-4, 4-11) [I-2527]
1730			Ac-[αAllylPro]N[Cha][B5(4)]DQKAFL[PyrS2]F[Bta][MorphAsn]-NH2 (staple 1-4, 4-11; not fully specified (residue 7); printed as Ac-PL3-Asn-Cha-B5-Asp-Gln-[Phc]Lys-Ala-Phe-Leu-PyrS2-Phe-BztA-MorphAsn-NH2) [I-2523]
		1020	Ac-[αAllylPro]DA[B5(4)]NTAAFN[PyrS2″][3Thi][Bta]Q-NH2 (staple 1-4, 4-11; not fully specified; printed as Ac-PL3-Asp-Ala-B5-Asn-Thr-Ala-Ala-Phe-Asn-PyrS2-3Thi-BztA-Gln-NH2) [I-2003]
		285	Ac-[αAllylPro]D[tBuAla][B5(4)]NTA[Lys(iPr)]FN[PyrS2″][3Thi][Bta]Q-NH2 (staple 1-4, 4-11) [I-2006]
61			Ac-[αAllylPro]D[tBuAla][B6]D[Phe(3-COOH)]QAFL[PyrS2][Phe(2-CF3)][Bta]A-NH2 (staple 1-4, 4-11) [I-2517]
		357	Ac-[αAllylPro]D[tBuAla][B5(4)]NT[Lys(iPr)]AFN[PyrS2″][3Thi][Bta]Q-NH2 (staple 1-4, 4-11; not fully specified; printed as Ac-PL3-Asp-Npg-B5-Asn-Thr-iPrLys-Ala-Phe-Asn-PyrS2-3Thi-BztA-Gln-NH2) [I-2005]
610			Ac-[αAllylPro]N[Cha][B5(25)]DQK(Me2Npr)AFL[PyrS2]F[Bta][MorphAsn]-NH2 (staple 1-4, 4-11; reading uncertain; also: printed as Ac-PL3-Asn-Cha-B5-Asp-Gln-[Me2Npr]Lys-Ala-Phe-Leu-PyrS2-Phe-BztA-MorphAsn-NH2) [I-2528]
		227	Ac-[αAllylPro]D[tBuAla][B5(4)]NT[Lys(iPr)]AFN[PyrS2″][3Thi][Bta]Q-NH2 (staple 1-4, 4-11; not fully specified; printed as Ac-PL3-Asp-Npg-B5-Asn-Thr-iPrLys-Ala-Phe-Asn-PyrS2-3Thi-BztA-Gln-NH2) [I-2004]
1610			Ac-[αAllylPro]D[tBuAla][B6]D[Phe(3-COOH)]QAFL[PyrS2][Phe(2-CF3)][Bta]A-NH2 (staple 1-4, 4-11) [I-2515]
94			Ac-[αAllylPro]D[tBuAla][B6]D[Phe(3-COOH)]QAFL[PyrS1][Phe(2-CF3)][Bta]A-NH2 (staple 1-4, 4-11; not fully specified; printed as Ac-PL3-Asp-Npg-B6-Asp-3COOHF-Gln-Ala-Phe-Leu-PyrS1-2F3MeF-BztA-Ala-NH2) [I-2519]
4290			Ac-[αAllylPro]N[Cha][B5(25)]DQK(CF3CO)AFL[PyrS2]F[Bta][MorphAsn]-NH2 (staple 1-4, 4-11) [I-2525]
609			Ac-[αAllylPro]N[Cha][B5(25)]DQK(Ms)AFL[PyrS2]F[Bta][MorphAsn]-NH2 (staple 1-4, 4-11) [I-2524]
219			Ac-[αAllylPro]N[Cha][B5(4)]DQK(Ac)AFL[PyrS2]F[Bta][MorphAsn]-NH2 (staple 1-4, 4-11) [I-2522]
